Assay results taken from paper PMC10361598 (Science Advances, 2023).
Where two headings read alike, the source gives them in different places.

Assays:
[1] = target: T1, CXCL12 (UniProt P48061 22-93); assay: graphene field-effect transistor array
[2] = target: T1, CXCL12; assay: graphene field-effect transistor array; remark: listed apart in the source

T1 sequence (P48061 22-93): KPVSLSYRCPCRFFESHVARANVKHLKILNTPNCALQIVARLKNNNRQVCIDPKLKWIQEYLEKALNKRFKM

Kd [1]: 24.8 ± 13 nM
Kd [2]: 20.1 ± 9.1 nM
B1: CXCR4^QTY-Fc (Fc fusion)
chain: PSTCSKPTCPPPELLGGPSVFIFPPKPKDTLMISRTPEVTCVVVDVSQDDPEVQFTWYINNEQVRTARPPLREQQFNSTIRVVSTLPITHQDWLRGKEFKCKVHNKALPAPIEKTISKARGQPLEPKVYTMGPPREELSSRSVSLTCMINGFYPSDISVEWEKNGKAEDNYKTTPAVLDSDGSYFLYNKLSVPTSEWQRGDVFTCSVMHEALHNHYTQKSISRSPGK
modifications: RED-NHS fluorescent label (Monolith NT Protein Labeling Kit RED-NHS), in the MST only
